doi:10.1101/2025.09.18.677151, “Structure and substrate recognition by the Twin-arginine translocation (Tat) pathway core complex” (bioRxiv, 2025)
One block for each binder: values may come before it.

Tests used:
[1] = target: T1, E. coli TatC with a C-terminal strep tag, expressed from the tatABC plasmid (E. coli, UniProt P69423 1-258); test: quantification of Coomassie stained SDS-PAGE bands of the purified complexes; purified E. coli TatABC and TatBC loaded at 4 dilutions; bands quantified with ImageJ; three independent samples; details: both partners purified
T1 construct: TatC, E. coli; also called TatC_(strep); source: E. coli MC4100 ΔtatABCD ΔtatE, tatABC operon on a low copy number plasmid; in GDN-solubilised membranes, captured on Streptactin XT; not shown: strep tag, C-terminal, kept
T1 sequence: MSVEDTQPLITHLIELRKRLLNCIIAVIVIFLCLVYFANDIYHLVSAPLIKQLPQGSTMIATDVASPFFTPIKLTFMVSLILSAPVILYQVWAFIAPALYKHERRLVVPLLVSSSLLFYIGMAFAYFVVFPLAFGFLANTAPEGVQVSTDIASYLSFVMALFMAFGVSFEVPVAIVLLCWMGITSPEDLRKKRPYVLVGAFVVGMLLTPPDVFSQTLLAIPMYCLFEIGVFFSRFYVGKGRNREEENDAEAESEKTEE

[2] = target: the molecule itself; test: cryo-EM structure; E. coli TatBC complex purified in GDN; single particle, C3 symmetry, 3.1 Å
E. coli TatBC complex = target: T2, E. coli TatBC complex (E. coli, UniProt P69425 1-171; P69423 1-258); test: cryo-EM structure; purified MdoD (SUMO removed) mixed with purified E. coli Tat complex in 0.02% GDN overnight at 4°C, SEC; core region 2.4 Å (C3), focused refinement on MdoD 2.1 Å (C2); details: both partners purified
T2 construct: TatB, E. coli; amplified from E. coli genomic DNA (DSM 1116); TatC, E. coli; also called TatB3C3; (TatBC)3; source: E. coli MC4100 ΔtatABCD ΔtatE, pQE60 based vector, overexpressed; purified in GDN (His-tag resin, SEC); for the pull-down captured from GDN-solubilised membranes on His-tag resin and washed; copies: 3 + 3
T2 sequence 1: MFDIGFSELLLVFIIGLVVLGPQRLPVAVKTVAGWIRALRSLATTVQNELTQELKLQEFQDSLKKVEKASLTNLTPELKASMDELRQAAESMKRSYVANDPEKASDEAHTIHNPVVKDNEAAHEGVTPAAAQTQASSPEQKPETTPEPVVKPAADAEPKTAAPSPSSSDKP
T2 sequence 2: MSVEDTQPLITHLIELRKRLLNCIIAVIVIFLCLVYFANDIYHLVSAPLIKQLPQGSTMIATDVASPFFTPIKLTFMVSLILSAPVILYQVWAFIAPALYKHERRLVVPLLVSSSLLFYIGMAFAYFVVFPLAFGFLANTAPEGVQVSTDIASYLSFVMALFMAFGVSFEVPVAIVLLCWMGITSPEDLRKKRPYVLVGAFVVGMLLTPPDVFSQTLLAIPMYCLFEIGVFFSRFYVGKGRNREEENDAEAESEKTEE

[3] = target: the molecule itself; test: as above
[4] = target: the molecule itself; test: crystal structure; selenomethionine-labelled M. xanthus TatC periplasmic domain; sitting drop, 21 °C; data to 2.0 Å
[5] = target: the molecule itself; test: cryo-EM structure; N. salsuginis TatBC complex purified in GDN; single particle, C3 symmetry
[6] = target: the molecule itself; test: cryo-EM structure; M. xanthus TatBC complex purified in GDN; single particle, C3 symmetry

ratio of TatB to TatC in the TatABC complex relative to the TatBC complex [1]: 0.78
B1: E. coli TatB expressed from the tatABC plasmid (natural protein)
chain: MFDIGFSELLLVFIIGLVVLGPQRLPVAVKTVAGWIRALRSLATTVQNELTQELKLQEFQDSLKKVEKASLTNLTPELKASMDELRQAAESMKRSYVANDPEKASDEAHTIHNPVVKDNEAAHEGVTPAAAQTQASSPEQKPETTPEPVVKPAADAEPKTAAPSPSSSDKP
notes: TatB, E. coli; source: E. coli MC4100 ΔtatABCD ΔtatE, tatABC operon on a low copy number plasmid; in GDN-solubilised membranes, co-purified

B2: E. coli TatB (subunit of the overexpressed TatBC complex) (natural protein)
chain: MFDIGFSELLLVFIIGLVVLGPQRLPVAVKTVAGWIRALRSLATTVQNELTQELKLQEFQDSLKKVEKASLTNLTPELKASMDELRQAAESMKRSYVANDPEKASDEAHTIHNPVVKDNEAAHEGVTPAAAQTQASSPEQKPETTPEPVVKPAADAEPKTAAPSPSSSDKP
notes: TatB, E. coli; amplified from E. coli genomic DNA (DSM 1116); residues 1-63 modelled in the cryo-EM map; source: E. coli MC4100 ΔtatABCD ΔtatE, pQE60 based vector, co-overexpressed with TatC; purified in GDN (His-tag resin, SEC)
binding result [2]: binds

stoichiometry N (E. coli TatBC complex): 3
B3: E. coli MdoD, full length with its Tat signal peptide (natural protein, UniProt P40120 1-551, looked up)
chain: MDRRRFIKGSMAMAAVCGTSGIASLFSQAAFAADSDIADGQTQRFDFSILQSMAHDLAQTAWRGAPRPLPDTLATMTPQAYNSIQYDAEKSLWHNVENRQLDAQFFHMGMGFRRRVRMFSVDPATHLAREIHFRPELFKYNDAGVDTKQLEGQSDLGFAGFRVFKAPELARRDVVSFLGASYFRAVDDTYQYGLSARGLAIDTYTDSKEEFPDFTAFWFDTVKPGATTFTVYALLDSASITGAYKFTIHCEKSQVIMDVENHLYARKDIKQLGIAPMTSMFSCGTNERRMCDTIHPQIHDSDRLSMWRGNGEWICRPLNNPQKLQFNAYTDNNPKGFGLLQLDRDFSHYQDIMGWYNKRPSLWVEPRNKWGKGTIGLMEIPTTGETLDNIVCFWQPEKAVKAGDEFAFQYRLYWSAQPPVHCPLARVMATRTGMGGFSEGWAPGEHYPEKWARRFAVDFVGGDLKAAAPKGIEPVITLSSGEAKQIEILYIEPIDGYRIQFDWYPTSDSTDPVDMRMYLRCQGDAISETWLYQYFPPAPDKRQYVDDRVMS
notes: MdoD (OpgD), E. coli, precursor with the 32 residue Tat signal peptide; amplified from E. coli genomic DNA (DSM 1116); also called OpgD; source: E. coli BL21 (DE3) ΔtatABCD ΔtatE, pET28a modified, purified (His-tag resin), His6-SUMO removed with Ulp1; not shown: His6-SUMO, N-terminal, cleaved
stoichiometry N [3]: 2

B4: M. xanthus TatC periplasmic domain (residues 127-303) (domain or fragment, Myxococcus xanthus, UniProt Q2PHA2 127-303, looked up)
chain: SMFTFLLNEEETLALEQRLDTARLRADDALRFLRLGEAEEAGRIAKETSTQLRAEGQGQAPAPEVAPAASVEMTGRLDGLGRLLDAASVGYGAQSRGVLRQAVEKRVEAVTAYEKKDFAAAAAAMDGSASLLAGIAPTRTEELAGLWRLEKELATAHAAHEAARWTRPMLSMHEQLS
modifications: selenomethionine-labelled
notes: TatC, Myxococcus xanthus, periplasmic domain, residues 127-303; also called M. xanthus insert; M. xanthus periplasmic domain; source: E. coli B834 (DE3), pET15b, purified (Ni-NTA, TEV, SEC)
stoichiometry N [4]: 3

B5: N. salsuginis TatC (GFP-His removed) (natural protein, Nitratifractor salsuginis)
chain: MFESMKPHLAELRQRLAISVLAVFVGFIIAFTFHNAILGWITKPLNNALIQVGKIVEKREMGTWKISGNEHNATLAPSKSPALLSDHAQSAEKLHRTLAEASQATQNPKLQKLLSQAASAAEELARNSRILRKALVKEENLTRQAVNQNLREKSFNGMITTHQVGGAFFVALKVSFFAGILMAMPVILWQLWLFIAPGLYDNEKKMVLPFVVGGSVMFLIGVLFAYYVVTPFGFQFLITFGSFLYTPLINIEDYVGFFTKILIGFGIAFELPVVAYFLALLGLITDKTLKDYFKYAIVIIFLLAAFLTPPDVLTQLLMAAPLILLYGLSILIVHYVNPYKPEEKEDDEEEEEDEFEKAEREFEALEKGSESHES
notes: TatC, Nitratifractor salsuginis, with a large periplasmic insert; gene codon-optimised and synthesised; source: E. coli strain L56, pWALDO based pTatC-GFP-His, co-overexpressed with TatB-strep or TatA-strep; purified in GDN or digitonin (Ni-NTA, TEV, Streptactin XT, SEC)
stoichiometry N [5]: 3

B6: M. xanthus TatC (GFP-His removed) (natural protein, Myxococcus xanthus)
chain: MSLADHLTELRSRLMRCTIAVLILGTISLVFAKPIFGLLMQPVLDALPPENRSLIYTSGIEELNVLMKVGVYCGIFLTTPVILMQIWGFVSPGLYPEERRFAAPFVAFGSIAFLLGAAFCYFAVLPSMFTFLLNEEETLALEQRLDTARLRADDALRFLRLGEAEEAGRIAKETSTQLRAEGQGQAPAPEVAPAASVEMTGRLDGLGRLLDAASVGYGAQSRGVLRQAVEKRVEAVTAYEKKDFAAAAAAMDGSASLLAGIAPTRTEELAGLWRLEKELATAHAAHEAARWTRPMLSMHEQLSLVLLLILAFGIIFELPLVMALLGVVGVVKSSWLFRYQRHAFVVCLIAAAIITPTGDVVNLSLMAGPMLLCYELGVLLVWMVERRRARNSAETGITPAS
notes: TatC, Myxococcus xanthus, with a large periplasmic insert; gene codon-optimised and synthesised; source: E. coli strain L56, pWALDO based pTatC-GFP-His, co-overexpressed with TatB-strep; purified in GDN (Ni-NTA, TEV, Streptactin XT, SEC)
stoichiometry N [6]: 3
